Source: patent US20090093061A1

Columns and labels:
Assay in all cases: GroEL-490 bead column capture of denatured serum, ATP elution, LC-MS-MS
[1] = molecular target: SPRY domain-containing SOCS box protein SSB-4 (Homo sapiens) (UniProt Q96A44)
[2] = molecular target: START domain containing 9 (Homo sapiens) (UniProt Q9P2P6)
[3] = molecular target: p47 protein isoform a (Homo sapiens) (UniProt Q9UNZ2)
[4] = molecular target: 3-hydroxyanthranilate 3,4-dioxygenase (Homo sapiens) (UniProt P46952)
[5] = molecular target: KIAA0804 protein (Homo sapiens) (UniProt Q8N3P4)
[6] = molecular target: albumin precursor (Homo sapiens) (UniProt P02768)
[7] = molecular target: UDP glycosyltransferase 2 family, polypeptide B7 (Homo sapiens) (UniProt P16662)
[8] = molecular target: insulin-like 6 precursor (Homo sapiens) (UniProt Q9Y581)
[9] = molecular target: WD repeat membrane protein PWDMP (Homo sapiens) (UniProt Q8NEZ3)
[10] = molecular target: peroxisome biogenesis factor 13 (Homo sapiens) (UniProt Q92968)
[11] = molecular target: target of myb1 (Homo sapiens) (UniProt O60784)
[12] = molecular target: hypothetical protein FLJ22344 (Homo sapiens)
[13] = molecular target: triple functional domain (PTPRF interacting) (Homo sapiens) (UniProt O75962)
[14] = molecular target: similar to KIAA2018 protein (Homo sapiens) (UniProt Q68DE3)
[15] = molecular target: Hpall tiny fragments locus 9C isoform2 (Homo sapiens) (UniProt Q8IZ69)
[16] = molecular target: ankyrin repeat domain 26 (Homo sapiens) (UniProt Q9UPS8)
[17] = molecular target: titin isoform novex-2 (Homo sapiens) (UniProt Q8WZ42)
[18] = molecular target: integrin, beta 5 (Homo sapiens) (UniProt P18084)
[19] = molecular target: ATPase, H+ transporting, lysosomal V0 subunit a isoform 2 (Homo sapiens) (UniProt Q9Y487)
[20] = molecular target: hemicentin (Homo sapiens) (UniProt Q96RW7)
[21] = molecular target: T1, similar to Nonhistone chromosomal protein HMG-14 (High-mobility group nucleosome binding domain 1) (Homo sapiens) (UniProt P05114)
T1 sequence (looked up): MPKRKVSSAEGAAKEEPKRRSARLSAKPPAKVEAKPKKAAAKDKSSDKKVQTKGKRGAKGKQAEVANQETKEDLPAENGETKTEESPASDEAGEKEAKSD

[22] = molecular target: zinc finger protein 469 (Homo sapiens) (UniProt Q96JG9)
[23] = molecular target: dendrin (Homo sapiens) (UniProt O94850)
[24] = molecular target: ceruloplasmin (ferroxidase) (Homo sapiens) (UniProt P00450)
[25] = molecular target: baculoviral IAP repeat-containing 6 (Homo sapiens) (UniProt Q9NR09)
[26] = molecular target: alpha 2 type XI collagen isoform 3 preproprotein (Homo sapiens) (UniProt P13942)
[27] = molecular target: solute carrier family 4, anion exchanger, member 2 (erythrocyte membrane protein band 3-liKe 1) (Homo sapiens) (UniProt P04920)
[28] = molecular target: kinesin family member 23 isoform 1 (Homo sapiens) (UniProt Q02241)
[29] = molecular target: KIAA1330 protein (Homo sapiens) (UniProt Q96L96)
[30] = molecular target: Rho GTPase activating protein 21 (Homo sapiens) (UniProt Q5T5U3)
[31] = molecular target: keratin 1 (Homo sapiens) (UniProt P04264)
[32] = molecular target: hypothetical protein XP_378771 (Homo sapiens)
[33] = molecular target: hypothetical protein XP_378639 (Homo sapiens)

Sequence of GroEL having Aspartate 490 substituted with Cysteine, biotinylated and conjugated onto NeutrAvidin beads (A1AJ51 whole entry D490C): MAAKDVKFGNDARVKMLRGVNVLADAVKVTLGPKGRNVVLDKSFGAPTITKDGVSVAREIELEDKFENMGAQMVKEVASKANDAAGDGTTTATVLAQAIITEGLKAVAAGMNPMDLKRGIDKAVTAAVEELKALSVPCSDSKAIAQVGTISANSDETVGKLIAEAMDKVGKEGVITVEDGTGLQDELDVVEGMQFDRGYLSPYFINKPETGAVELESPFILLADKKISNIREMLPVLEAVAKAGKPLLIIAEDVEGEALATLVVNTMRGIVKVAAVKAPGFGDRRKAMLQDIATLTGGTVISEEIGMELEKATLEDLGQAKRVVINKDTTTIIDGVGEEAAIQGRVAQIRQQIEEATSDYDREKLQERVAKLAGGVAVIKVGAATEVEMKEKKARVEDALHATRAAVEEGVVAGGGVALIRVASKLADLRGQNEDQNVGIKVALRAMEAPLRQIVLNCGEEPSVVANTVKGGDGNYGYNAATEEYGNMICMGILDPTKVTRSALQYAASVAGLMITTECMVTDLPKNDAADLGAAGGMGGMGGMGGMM
Sequence of similar to KIAA2018 protein (Homo sapiens) (Q68DE3 whole entry, the tested form may be a part, canonical isoform): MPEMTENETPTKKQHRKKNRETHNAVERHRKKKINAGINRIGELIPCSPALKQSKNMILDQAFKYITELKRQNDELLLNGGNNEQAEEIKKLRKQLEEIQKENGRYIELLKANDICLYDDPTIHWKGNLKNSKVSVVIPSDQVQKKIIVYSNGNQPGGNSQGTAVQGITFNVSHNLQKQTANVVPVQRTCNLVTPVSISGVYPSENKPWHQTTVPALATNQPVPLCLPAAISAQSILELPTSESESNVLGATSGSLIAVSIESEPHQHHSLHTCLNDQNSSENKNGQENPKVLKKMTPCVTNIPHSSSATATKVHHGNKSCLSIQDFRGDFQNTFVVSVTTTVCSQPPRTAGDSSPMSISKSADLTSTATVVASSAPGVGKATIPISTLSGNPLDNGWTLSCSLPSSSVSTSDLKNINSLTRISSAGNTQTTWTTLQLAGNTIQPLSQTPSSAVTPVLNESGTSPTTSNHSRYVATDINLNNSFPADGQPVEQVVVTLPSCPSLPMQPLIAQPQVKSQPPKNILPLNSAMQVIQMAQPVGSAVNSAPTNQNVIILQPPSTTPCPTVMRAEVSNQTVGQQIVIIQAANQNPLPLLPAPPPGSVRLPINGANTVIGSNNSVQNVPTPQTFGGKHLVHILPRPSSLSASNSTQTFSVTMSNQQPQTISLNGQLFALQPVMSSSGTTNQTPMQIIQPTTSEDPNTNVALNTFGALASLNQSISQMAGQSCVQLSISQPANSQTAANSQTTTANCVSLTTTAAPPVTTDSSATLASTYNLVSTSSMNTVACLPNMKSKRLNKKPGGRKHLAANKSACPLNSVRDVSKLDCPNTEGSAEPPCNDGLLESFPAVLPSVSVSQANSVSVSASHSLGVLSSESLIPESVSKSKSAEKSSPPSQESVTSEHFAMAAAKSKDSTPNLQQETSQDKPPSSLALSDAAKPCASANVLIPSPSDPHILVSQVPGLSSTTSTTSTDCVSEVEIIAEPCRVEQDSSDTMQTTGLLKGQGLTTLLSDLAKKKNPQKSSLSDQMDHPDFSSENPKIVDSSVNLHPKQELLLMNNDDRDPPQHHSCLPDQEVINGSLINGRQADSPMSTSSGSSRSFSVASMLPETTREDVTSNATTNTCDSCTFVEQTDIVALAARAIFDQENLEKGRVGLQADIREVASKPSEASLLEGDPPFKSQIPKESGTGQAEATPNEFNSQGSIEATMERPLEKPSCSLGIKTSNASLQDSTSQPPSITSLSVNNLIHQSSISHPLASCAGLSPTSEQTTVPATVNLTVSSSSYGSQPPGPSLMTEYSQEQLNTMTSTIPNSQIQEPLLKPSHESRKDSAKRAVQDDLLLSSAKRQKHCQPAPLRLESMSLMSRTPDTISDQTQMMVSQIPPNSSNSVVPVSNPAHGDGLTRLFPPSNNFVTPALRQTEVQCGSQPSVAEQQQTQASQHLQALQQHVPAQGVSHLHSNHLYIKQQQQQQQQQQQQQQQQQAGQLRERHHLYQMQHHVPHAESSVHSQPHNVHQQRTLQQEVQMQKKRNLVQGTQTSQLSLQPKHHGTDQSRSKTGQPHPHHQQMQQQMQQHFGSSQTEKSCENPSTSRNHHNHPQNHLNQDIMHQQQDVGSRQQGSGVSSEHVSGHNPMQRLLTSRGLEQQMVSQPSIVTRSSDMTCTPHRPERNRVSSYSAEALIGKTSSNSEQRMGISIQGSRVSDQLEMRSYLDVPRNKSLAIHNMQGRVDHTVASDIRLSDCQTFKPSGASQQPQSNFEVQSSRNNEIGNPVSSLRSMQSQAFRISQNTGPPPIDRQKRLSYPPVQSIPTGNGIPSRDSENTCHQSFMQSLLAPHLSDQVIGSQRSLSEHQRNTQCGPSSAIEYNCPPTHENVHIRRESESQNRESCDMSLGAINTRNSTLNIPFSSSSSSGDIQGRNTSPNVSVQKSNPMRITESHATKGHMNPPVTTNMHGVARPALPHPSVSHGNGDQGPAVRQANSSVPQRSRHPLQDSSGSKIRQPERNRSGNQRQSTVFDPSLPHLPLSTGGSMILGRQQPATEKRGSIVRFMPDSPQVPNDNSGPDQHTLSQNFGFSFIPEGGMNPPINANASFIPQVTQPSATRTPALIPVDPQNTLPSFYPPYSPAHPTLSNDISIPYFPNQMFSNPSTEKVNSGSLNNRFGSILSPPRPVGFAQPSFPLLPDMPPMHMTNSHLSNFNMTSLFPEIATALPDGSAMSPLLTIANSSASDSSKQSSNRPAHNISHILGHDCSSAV
Sequence of insulin-like 6 precursor (Homo sapiens) (Q9Y581 21-213 limits assumed): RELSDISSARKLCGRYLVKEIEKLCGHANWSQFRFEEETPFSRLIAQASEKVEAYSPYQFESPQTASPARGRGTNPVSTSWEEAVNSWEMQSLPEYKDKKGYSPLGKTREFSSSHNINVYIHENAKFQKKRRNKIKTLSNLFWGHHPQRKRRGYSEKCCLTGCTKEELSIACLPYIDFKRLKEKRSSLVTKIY
Sequence of Rho GTPase activating protein 21 (Homo sapiens) (Q5T5U3 whole entry): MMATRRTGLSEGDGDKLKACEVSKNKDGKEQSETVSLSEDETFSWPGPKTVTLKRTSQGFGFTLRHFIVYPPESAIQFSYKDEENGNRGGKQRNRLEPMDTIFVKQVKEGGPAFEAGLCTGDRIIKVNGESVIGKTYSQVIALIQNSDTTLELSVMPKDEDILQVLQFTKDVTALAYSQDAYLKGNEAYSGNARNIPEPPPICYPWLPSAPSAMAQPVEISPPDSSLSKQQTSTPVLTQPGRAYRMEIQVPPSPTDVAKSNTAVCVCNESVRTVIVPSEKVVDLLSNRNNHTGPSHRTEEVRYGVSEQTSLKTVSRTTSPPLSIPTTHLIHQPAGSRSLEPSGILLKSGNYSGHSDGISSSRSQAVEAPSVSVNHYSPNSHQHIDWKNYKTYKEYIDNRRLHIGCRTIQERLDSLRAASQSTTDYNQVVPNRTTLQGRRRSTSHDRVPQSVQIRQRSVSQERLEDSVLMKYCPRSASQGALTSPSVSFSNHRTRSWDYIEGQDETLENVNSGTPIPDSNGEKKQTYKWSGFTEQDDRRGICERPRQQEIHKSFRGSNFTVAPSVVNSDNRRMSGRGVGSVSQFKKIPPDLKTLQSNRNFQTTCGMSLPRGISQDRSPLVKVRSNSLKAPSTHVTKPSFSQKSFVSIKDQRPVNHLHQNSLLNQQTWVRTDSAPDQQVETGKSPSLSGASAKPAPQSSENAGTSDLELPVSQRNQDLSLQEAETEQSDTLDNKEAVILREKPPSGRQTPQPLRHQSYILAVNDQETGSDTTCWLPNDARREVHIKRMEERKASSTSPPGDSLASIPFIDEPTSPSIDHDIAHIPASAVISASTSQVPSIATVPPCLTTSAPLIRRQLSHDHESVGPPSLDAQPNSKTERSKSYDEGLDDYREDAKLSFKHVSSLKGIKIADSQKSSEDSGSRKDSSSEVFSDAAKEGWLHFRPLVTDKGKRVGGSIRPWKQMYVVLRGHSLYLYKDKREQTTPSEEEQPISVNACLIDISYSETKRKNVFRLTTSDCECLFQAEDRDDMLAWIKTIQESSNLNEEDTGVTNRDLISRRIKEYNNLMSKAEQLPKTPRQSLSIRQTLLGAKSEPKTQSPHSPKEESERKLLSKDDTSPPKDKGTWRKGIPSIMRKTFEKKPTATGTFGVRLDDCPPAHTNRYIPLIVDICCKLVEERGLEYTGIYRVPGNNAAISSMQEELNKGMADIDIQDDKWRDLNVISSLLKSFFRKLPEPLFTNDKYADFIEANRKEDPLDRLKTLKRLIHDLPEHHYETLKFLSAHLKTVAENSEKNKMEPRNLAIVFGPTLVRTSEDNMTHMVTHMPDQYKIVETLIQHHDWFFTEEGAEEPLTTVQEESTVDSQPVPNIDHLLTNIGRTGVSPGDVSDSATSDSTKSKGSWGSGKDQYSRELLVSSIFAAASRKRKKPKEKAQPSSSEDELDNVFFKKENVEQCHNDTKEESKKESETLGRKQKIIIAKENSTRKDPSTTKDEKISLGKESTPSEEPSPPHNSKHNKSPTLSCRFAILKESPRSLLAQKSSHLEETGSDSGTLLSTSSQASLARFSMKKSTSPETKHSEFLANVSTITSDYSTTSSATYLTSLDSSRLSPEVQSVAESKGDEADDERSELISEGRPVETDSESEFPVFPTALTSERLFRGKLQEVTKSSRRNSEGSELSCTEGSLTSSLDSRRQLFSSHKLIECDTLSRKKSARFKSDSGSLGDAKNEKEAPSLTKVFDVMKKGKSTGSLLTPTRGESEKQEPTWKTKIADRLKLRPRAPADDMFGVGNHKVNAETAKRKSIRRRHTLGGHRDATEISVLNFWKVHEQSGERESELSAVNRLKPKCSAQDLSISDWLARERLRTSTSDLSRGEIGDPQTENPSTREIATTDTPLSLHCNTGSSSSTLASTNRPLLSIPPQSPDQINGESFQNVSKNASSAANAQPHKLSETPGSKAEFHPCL

GroEL having Aspartate 490 substituted with Cysteine, biotinylated and conjugated onto NeutrAvidin beads (from UniProt A1AJ51 1-548)
Spectrum Count [1]: 30 count
Spectrum Count [2]: 10 count
Spectrum Count [3]: 22 count
Spectrum Count [4]: 9 count
Spectrum Count [5]: 13 count
Spectrum Count [6]: 475 count
Spectrum Count [7]: 26 count
Spectrum Count [8]: 13 count
Spectrum Count [9]: 16 count
Spectrum Count [10]: 38 count
Spectrum Count [11]: 30 count
Spectrum Count [12]: 10 count
Spectrum Count [13]: 14 count
Spectrum Count [14]: 12 count
Spectrum Count [15]: 34 count
Spectrum Count [16]: 9 count
Spectrum Count [17]: 56 count
Spectrum Count [18]: 9 count
Spectrum Count [19]: 12 count
Spectrum Count [20]: 10 count
Spectrum Count [21]: 13 count
Spectrum Count [22]: 13 count
Spectrum Count [23]: 14 count
Spectrum Count [24]: 19 count
Spectrum Count [25]: 113 count
Spectrum Count [26]: 10 count
Spectrum Count [27]: 12 count
Spectrum Count [28]: 53 count
Spectrum Count [29]: 13 count
Spectrum Count [30]: 11 count
Spectrum Count [31]: 16 count
Spectrum Count [32]: 17 count
Spectrum Count [33]: 14 count
